# Measurements from IntAct's records for PubMed 18250304.
# B1: Endothelial transcription factor GATA-2 (Homo sapiens), P23769 (parent)
# chain: MEVAPEQPRWMAHPAVLNAQHPDSHHPGLAHNYMEPAQLLPPDEVDVFFNHLDSQGNPYYANPAHARARVSYSPAHARLTGGQMCRPHLLHSPGLPWLDGGKAALSAAAAHHHNPWTVSPFSKTPLHPSAAGGPGGPLSVYPGAGGGSGGGSGSSVASLTPTAAHSGSHLFGFPPTPPKEVSPDPSTTGAASPASSSAGGSAARGEDKDGVKYQVSLTESMKMESGSPLRPGLATMGTQPATHHPIPTYPSYVPAAAHDYSSGLFHPGGFLGGPASSFTPKQRSKARSCSEGRECVNCGATATPLWRRDGTGHYLCNACGLYHKMNGQNRPLIKPKRRLSAARRAGTCCANCQTTTTTLWRRNANGDPVCNACGLYYKLHNVNRPLTMKKEGIQTRNRKMSNKSKKSKKGAECFEELSKCMQEKSSPFSAAALAGHMAPVGHLPPFSHSGHILPTPTPIHPSSSLSFGHPHPSSMVTAMG
# Variants of: B1
# Conditions: with cbp_human CREBBP
row,effect of a mutation on the interaction,Variant
1,increasing interaction,L359V
